# Paper PMC7905944 (Science signaling, 2020)
# B1: endogenous LGR5 of LoVo cells (receptor, human (endogenous in LoVo), UniProt O75473 22-907, looked up)
# chain: GSSPRSGVLLRGCPTHCHCEPDGRMLLRVDCSDLGLSELPSNLSVFTSYLDLSMNNISQLLPNPLPSLRFLEELRLAGNALTYIPKGAFTGLYSLKVLMLQNNQLRHVPTEALQNLRSLQSLRLDANHISYVPPSCFSGLHSLRHLWLDDNALTEIPVQAFRSLSALQAMTLALNKIHHIPDYAFGNLSSLVVLHLHNNRIHSLGKKCFDGLHSLETLDLNYNNLDEFPTAIRTLSNLKELGFHSNNIRSIPEKAFVGNPSLITIHFYDNPIQFVGRSAFQHLPELRTLTLNGASQITEFPDLTGTANLESLTLTGAQISSLPQTVCNQLPNLQVLDLSYNLLEDLPSFSVCQKLQKIDLRHNEIYEIKVDTFQQLLSLRSLNLAWNKIAIIHPNAFSTLPSLIKLDLSSNLLSSFPITGLHGLTHLKLTGNHALQSLISSENFPELKVIEMPYAYQCCAFGVCENAYKISNQWNKGDNSSMDDLHKKDAGMFQAQDERDLEDFLLDFEEDLKALHSVQCSPSPGPFKPCEHLLDGWLIRIGVWTIAVLALTCNALVTSTVFRSPLYISPIKLLIGVIAAVNMLTGVSSAVLAGVDAFTFGSFARHGAWWENGVGCHVIGFLSIFASESSVFLLTLAALERGFSVKYSAKFETKAPFSSLKVIILLCALLALTMAAVPLLGGSKYGASPLCLPLPFGEPSTMGYMVALILLNSLCFLMMTIAYTKLYCNLDKGDLENIWDCSMVKHIALLLFTNCILNCPVAFLSFSSLINLTFISPEVIKFILLVVVPLPACLNPLLYILFNPHFKEDLVSLRKQTYVWTRSKHPSLMSINSDDVEKQSCDSTQALVTFTSSSITYDLPPSSVPSPAYPVTESCHLSSVAFVPCL
# Biological target: the molecule itself
# Assay: cross-linking
protein,measurement,value
B1,stoichiometry N,2
